± gives the uncertainty stated by the source.
Test: self-splicing fitness, log relative to wild type (ln ratio); higher = more splicing; Tetrahymena group I intron in knt gene, E. coli kanamycin selection, DiMSum; sequences stand for … in CUCUCU…GGAGGGAAAAGUUAUCAGGCAUGCACCUGGUAGCUAGUCUUUAAACCAAUAGAUUGCAUCGGUUUAAAAGGCAAGACCGUCAAAUUGCGGGAAAGGGGUCAACAGCCGUUCAGUACCAAGUCUCAGGGGAAACUUUGAGAUGGCCUUGCAAAGGGUAUGGUAAUAAGCUGACGGACAUGGUCCUAACCACGCAGCCAAGUCCUAAGUCAACAGAUCUUCUGUUGAUAUGGAUGCAGUUCACAGACUAAAUGUCGGUCGGGGAAGAUGUAUUCUUCUCAUAAGAUAUAGUCGGACCUCUCCUUAAUGGGAGCUAGCGGAUGAAGUGAUGCAACACUGGAGCCGCUGGGAACUAAUUUGUAUGCGAAAGUAUAUUGAUUAGUUUUGGAGUACUCGUGGUCG
Procedure, shortened: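 Colonies from six replicate transformations of E. coli BL21(DE3) were pooled and amplicon-sequenced on an Illumina HiSeq 2500. The library placed an intron with all eight P1ex-region nucleotides randomised inside the knt kanamycin-resistance gene on pET-22b(+), and cells grew overnight at 37°C or 30°C on LB agar with or without 25 μg/mL kanamycin (plus 100 μg/mL carbenicillin, 50 μM IPTG, 0.2% rhamnose). Fitness is the DiMSum error-weighted combination of wild-type-normalised replicate fold changes, kanamycin versus none.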

| Sequence | self-splicing fitness (ln) (30 °C) | self-splicing fitness (ln) (37 °C) |
| --- | --- | --- |
| AAGUAGCAAUAUUACGGCCC | -0.413 ± 0.17 | -1.15 ± 0.26 |
| UAACAGCAAUAUUACGAAGC | -3.19 ± 0.19 | -2.3 ± 0.27 |
| AGUCAGCAAUAUUACGACGG | -0.725 ± 0.067 | -0.096 ± 0.1 |
| CUUGAGCAAUAUUACGAAGG | -1.97 ± 0.2 | – |
| AGUCAGCAAUAUUACGGAGG | -2.93 ± 0.13 | -1.31 ± 0.15 |
| GACAAGCAAUAUUACGGCGA | -0.213 ± 0.074 | 0.21 ± 0.085 |
| GUAGAGCAAUAUUACGGCCA | -0.643 ± 0.098 | -0.417 ± 0.17 |
| GAAAAGCAAUAUUACGAUGU | -1.07 ± 0.084 | -0.404 ± 0.096 |
| GGGCAGCAAUAUUACGUACC | -1.88 ± 0.31 | -1.39 ± 0.48 |
| GGGUAGCAAUAUUACGUUGA | -2.44 ± 0.16 | -0.495 ± 0.11 |
| UAACAGCAAUAUUACGACUC | -0.882 ± 0.084 | -0.517 ± 0.11 |
| UCGGAGCAAUAUUACGAUCG | -1.22 ± 0.15 | -0.115 ± 0.15 |
| GCUGAGCAAUAUUACGCACA | -3.2 ± 0.39 | -3.05 ± 0.4 |
| UUAGAGCAAUAUUACGACGA | 0.428 ± 0.12 | 0.651 ± 0.15 |
| GCCUAGCAAUAUUACGACCC | -1.59 ± 0.21 | -0.272 ± 0.25 |
| CCAUAGCAAUAUUACGCCGC | -1.47 ± 0.21 | – |
| CAUGAGCAAUAUUACGAGCG | -0.045 ± 0.092 | 0.443 ± 0.11 |
| CCGUAGCAAUAUUACGUCAA | – | -1.2 ± 0.27 |
| CAUCAGCAAUAUUACGAAAG | -0.638 ± 0.065 | -0.249 ± 0.087 |
| UAGAAGCAAUAUUACGUGUA | -1.95 ± 0.11 | -0.392 ± 0.09 |
| ACAUAGCAAUAUUACGAUUC | -2.52 ± 0.15 | -1.52 ± 0.12 |
| AGCAAGCAAUAUUACGUCCA | -1.62 ± 0.12 | 0.0058 ± 0.17 |
| UUCGAGCAAUAUUACGCAAG | -1.98 ± 0.4 | -1.66 ± 0.48 |
| CAGGAGCAAUAUUACGUAGC | – | -2.7 ± 0.36 |
| AGAAAGCAAUAUUACGGGUU | -2.85 ± 0.15 | -1.61 ± 0.12 |

| Sequence | self-splicing fitness (ln) (30 °C) | self-splicing fitness (ln) (37 °C) |
| --- | --- | --- |
| UUUCAGCAAUAUUACGUCCU | -2.99 ± 0.42 | -1.32 ± 0.28 |
| GCUCAGCAAUAUUACGCCAC | – | -1.97 ± 0.47 |
| AGUGAGCAAUAUUACGUGGG | -3.7 ± 0.29 | -2.51 ± 0.23 |
| ACAUAGCAAUAUUACGUCCC | -1.71 ± 0.15 | -0.222 ± 0.23 |
| UGCCAGCAAUAUUACGCGAU | -2.42 ± 0.17 | -1.88 ± 0.23 |
| ACGAAGCAAUAUUACGUCCC | -1.28 ± 0.13 | -1.07 ± 0.16 |
| CGGUAGCAAUAUUACGUACU | -1.36 ± 0.15 | -0.578 ± 0.16 |
| AUCCAGCAAUAUUACGGAUA | -3.19 ± 0.18 | -0.948 ± 0.12 |
| AUGAAGCAAUAUUACGCGCU | -0.561 ± 0.082 | 0.35 ± 0.11 |
| CCUAAGCAAUAUUACGACAC | -3.33 ± 0.44 | -2.03 ± 0.29 |
| UCGAAGCAAUAUUACGCUAC | -2.18 ± 0.26 | – |
| GAGAAGCAAUAUUACGCUGU | -3.35 ± 0.3 | -1.45 ± 0.29 |
| UAAAAGCAAUAUUACGUUUG | -2.22 ± 0.1 | -0.909 ± 0.11 |
| CUACAGCAAUAUUACGGGUA | -3.25 ± 0.19 | -2.05 ± 0.12 |
| UGCCAGCAAUAUUACGGAAG | -2.55 ± 0.073 | -1.42 ± 0.071 |
| UCUCAGCAAUAUUACGCACC | -2.18 ± 0.42 | – |
| GAGUAGCAAUAUUACGUACC | -1.54 ± 0.17 | -0.923 ± 0.27 |
| AGGUAGCAAUAUUACGACGC | -0.0643 ± 0.017 | 0.0178 ± 0.035 |
| GCUAAGCAAUAUUACGACUA | -1.7 ± 0.19 | -0.865 ± 0.23 |
| ACUAAGCAAUAUUACGCGCG | -0.732 ± 0.096 | -0.0128 ± 0.13 |
| CUAAAGCAAUAUUACGUAAA | -2.81 ± 0.14 | -3.36 ± 0.26 |
| GGGCAGCAAUAUUACGUUUU | -0.77 ± 0.046 | 0.221 ± 0.063 |
| UGCGAGCAAUAUUACGGGGA | -2.81 ± 0.39 | -1.9 ± 0.29 |
| UUUGAGCAAUAUUACGGUAG | -2.82 ± 0.39 | -2.41 ± 0.36 |
| GGUCAGCAAUAUUACGAAGC | -0.892 ± 0.11 | -0.0665 ± 0.13 |
